± gives the uncertainty stated by the source.
B1: POU domain, class 3, transcription factor 2, residues 356 to 411; numbered along this chain, P20265 (parent)
chain: KKRTSIEVSVKGALESHFLKCPKPSAQEITSLADSLQLEKEVVRVWFCNRRQKEKR
B2: Cytoplasmic polyadenylation element-binding protein 2, residues 513 to 575; numbered along this chain, Q7Z5Q1 (parent)
chain: KRVEVKPYVLDDQMCDECQGARCGGKFAPFFCANVTCLQYYCEFCWANIHSRAGREFHKPLVK

Variants of: B1
Experiment: abundance fitness (aPCA) (normalised: wild type 0, dead -1); higher = more abundant; growth selection in yeast, the domain comes from the species named
Conditions: Homo sapiens

Row | Variant | abundance fitness
1 | A13I | -0.184 ± 0.15
2 | A13P | -0.442 ± 0.19
3 | A13S | -0.162 ± 0.09
4 | A13Q | 0.011 ± 0.14
5 | A13V | 0.042 ± 0.097
6 | A13W | -0.422 ± 0.11
7 | A13C | -0.044 ± 0.11
8 | A13H | -0.196 ± 0.2
9 | A13E | -0.067 ± 0.1
10 | V8I | 0.051 ± 0.1
11 | V8H | 0.128 ± 0.15
12 | V8L | 0.007 ± 0.09
13 | V8C | -0.327 ± 0.14
14 | V8W | -0.131 ± 0.1
15 | V8S | 0.096 ± 0.079
16 | V8P | 0.119 ± 0.17
17 | V8M | 0.046 ± 0.11
18 | V8D | -0.064 ± 0.14
19 | V8T | 0.011 ± 0.11
20 | V8F | 0.065 ± 0.18
21 | V8G | 0.091 ± 0.075
22 | V8Q | 0.069 ± 0.13
23 | V8E | 0.093 ± 0.12

Row | Variant | abundance fitness
24 | V8A | 0.202 ± 0.11
25 | V8N | 0.212 ± 0.19
26 | V8R | 0.049 ± 0.094
27 | K2N | -0.339 ± 0.2
28 | K2R | -0.166 ± 0.099
29 | K2C | -0.395 ± 0.2
30 | K2P | -0.525 ± 0.24
31 | K2W | -0.246 ± 0.13
32 | K2S | -0.18 ± 0.12
33 | K2L | -0.222 ± 0.12
34 | K2A | -0.154 ± 0.15
35 | K2H | -0.335 ± 0.47
36 | K2T | -0.21 ± 0.14
37 | K2I | -0.207 ± 0.21
38 | K2G | -0.087 ± 0.1
39 | K2Q | -0.068 ± 0.17
40 | K2F | -0.199 ± 0.2
41 | K2V | -0.119 ± 0.12
42 | K2M | -0.072 ± 0.13
43 | K2D | 0.028 ± 0.18
44 | K2E | -0.07 ± 0.18
45 | K2Y | -0.06 ± 0.28
46 | K11G | -0.134 ± 0.091

Row | Variant | abundance fitness
47 | K11W | -0.039 ± 0.13
48 | K11V | 0.026 ± 0.084
49 | K11R | -0.126 ± 0.082
50 | K11C | -0.264 ± 0.13
51 | K11I | 0.074 ± 0.13
52 | K11N | -0.143 ± 0.15
53 | K11P | -0.269 ± 0.13
54 | K11A | -0.094 ± 0.091
55 | K11F | -0.139 ± 0.2
56 | K11H | 0.031 ± 0.12
57 | K11T | -0.027 ± 0.11
58 | K11E | 0.038 ± 0.11
59 | K11Y | -0.239 ± 0.25
60 | K11D | 0.099 ± 0.13
61 | K11M | -0.041 ± 0.12
62 | K11L | 0.03 ± 0.087
63 | V10K | 0.041 ± 0.12
64 | V10C | -0.294 ± 0.14
65 | V10W | -0.19 ± 0.1
66 | V10F | -0.568 ± 0.21
67 | V10A | -0.036 ± 0.08
68 | V10M | -0.134 ± 0.16
69 | V10E | -0.068 ± 0.13

Row | Variant | abundance fitness
70 | V10L | -0.134 ± 0.091
71 | V10P | -0.554 ± 0.17
72 | V10H | -0.095 ± 0.24
73 | V10T | 0.046 ± 0.11
74 | V10G | -0.318 ± 0.077
75 | V10R | -0.266 ± 0.09
76 | V10I | -0.013 ± 0.12
77 | V10Q | -0.13 ± 0.17
78 | H17S | 0.089 ± 0.095
79 | H17V | -0.287 ± 0.082
80 | H17M | -0.047 ± 0.11
81 | H17W | -0.02 ± 0.098
82 | H17P | -1.05 ± 0.25
83 | H17I | -0.289 ± 0.16
84 | H17E | -0.139 ± 0.1
85 | H17C | -0.283 ± 0.12
86 | H17G | -0.712 ± 0.1
87 | H17A | 0.127 ± 0.1
88 | H17R | -0.556 ± 0.085
89 | H17D | -0.833 ± 0.22
90 | H17T | -0.1 ± 0.11
91 | H17Q | -0.286 ± 0.13
92 | H17L | -0.292 ± 0.079

Row | Variant | abundance fitness
93 | H17N | -0.229 ± 0.35
94 | H17Y | 0.156 ± 0.083
95 | H17K | -0.364 ± 0.13
96 | F18G | -0.976 ± 0.1
97 | F18W | -0.335 ± 0.1
98 | F18R | -0.872 ± 0.1
99 | F18A | -0.902 ± 0.13
100 | F18D | -0.875 ± 0.17
101 | F18T | -1.2 ± 0.4
102 | F18I | -1.1 ± 0.33
103 | F18M | -1.02 ± 0.23
104 | F18V | -1.03 ± 0.12
105 | F18L | -0.836 ± 0.1
106 | F18K | -0.936 ± 0.3
107 | F18E | -0.979 ± 0.21
108 | F18H | -0.938 ± 0.27
109 | F18C | -0.914 ± 0.21
110 | F18S | -0.824 ± 0.12
111 | F18N | -0.856 ± 0.36
112 | S16I | -0.368 ± 0.18
113 | S16P | -0.539 ± 0.14
114 | S16M | -0.06 ± 0.12
115 | S16R | -0.055 ± 0.072

Row | Variant | abundance fitness
116 | S16C | -0.226 ± 0.12
117 | S16N | -0.297 ± 0.15
118 | S16Y | -0.382 ± 0.16
119 | S16H | -0.21 ± 0.16
120 | S16E | -0.015 ± 0.1
121 | S16K | 0.12 ± 0.13
122 | S16D | -0.193 ± 0.15
123 | S16W | -0.399 ± 0.11
124 | S16Q | 0.073 ± 0.15
125 | S16A | 0.097 ± 0.11
126 | S16T | -0.034 ± 0.11
127 | L14T | -0.953 ± 0.22
128 | L14Q | -0.848 ± 0.21
129 | L14G | -0.882 ± 0.12
130 | L14E | -0.794 ± 0.23
131 | L14I | -0.706 ± 0.27
132 | L14W | -0.915 ± 0.14
133 | L14H | -0.762 ± 0.2
134 | L14M | -0.501 ± 0.13
135 | L14S | -0.923 ± 0.11
136 | L14C | -0.78 ± 0.2
137 | L14V | -0.641 ± 0.13
138 | L14N | -0.632 ± 0.23

Row | Variant | abundance fitness
139 | L14K | -0.933 ± 0.2
140 | L14R | -0.855 ± 0.092
141 | L14F | -0.814 ± 0.22
142 | L14A | -1.04 ± 0.22
143 | S9Q | 0.1 ± 0.21
144 | S9K | 0.109 ± 0.12
145 | S9R | 0.108 ± 0.1
146 | S9W | 0.004 ± 0.11
147 | S9V | -0.123 ± 0.083
148 | S9T | 0.09 ± 0.091
149 | S9E | 0.046 ± 0.12
150 | S9G | 0.046 ± 0.074
151 | S9H | 0.057 ± 0.24
152 | S9Y | -0.267 ± 0.19
153 | S9P | -0.041 ± 0.19
154 | S9N | -0.198 ± 0.12
155 | S9L | -0.153 ± 0.11
156 | S9F | -0.366 ± 0.1
157 | S9I | -0.197 ± 0.17
158 | S9M | -0.025 ± 0.14

Variants of: B2
Experiment: as above
Conditions: Homo sapiens

Row | Variant | abundance fitness
159 | K63Y | -0.408 ± 0.14
160 | K63W | -0.415 ± 0.09
161 | K63V | -0.112 ± 0.062
162 | K63T | -0.079 ± 0.085
163 | K63S | -0.034 ± 0.13
164 | K63N | -0.091 ± 0.11
165 | K63Q | -0.044 ± 0.11
166 | K63R | -0.105 ± 0.092
167 | K63P | 0.367 ± 0.3
